These results are taken from patent US20260109745A1 (published 2026).

This experiment addresses T1, NEO-101 antibody (chimeric NPC-1 antibody).
T1 construct: Chimeric (murine variable, human constant regions); Used unlabelled, biotinylated, FITC-labelled or coupled to Dynal beads depending on the assay; also called NPC-1C; NPC-1-C
Briefly: ELISA: peptide-biotin on NEO-101 coated plate. The protocol: To solve the poor binding of peptides to 96 well plate, peptides were biotinylated using EZ-link micro NHS Biotinylation kit (Pierce Cat #21955), and labeling efficiency checked by dot blot (50%). […] The solution was blocked with 200 μl of 1% milk in TBS at RT for 20 min. Aliquots of 100 μl peptide-biotin (1 μg/ml) in 0.1% milk-TBS were added, and incubated at RT of 2 hr, followed by three washes with TBST. Streptavidin-HRP (100 μl of 1:2000 diluted in 1:10 diluted blocking buffer) was added, and the wells incubated at RT for 1 hr, followed by three washed. TMB was then added, and the wells were read at 450 nm. Positive controls for NPC-1C binding used 4B6-biotin. The results are shown in FIG. 11, which indicates biotinylated peptides bind to NPC-1C coated plate.

Ends that are not written are not given here.

T1 sequence (VH, as listed by the source limits assumed, chain 1 of 2): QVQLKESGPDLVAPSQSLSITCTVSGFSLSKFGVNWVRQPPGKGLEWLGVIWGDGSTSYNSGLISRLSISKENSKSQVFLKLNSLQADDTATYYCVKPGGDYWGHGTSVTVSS
T1 sequence (VL, as listed by the source limits assumed, chain 2 of 2): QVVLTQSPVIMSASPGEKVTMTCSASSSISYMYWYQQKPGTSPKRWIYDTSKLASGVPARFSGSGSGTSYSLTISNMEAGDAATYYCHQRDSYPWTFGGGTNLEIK

For YSHSVHAIEDNWSPRGGGGS (also: biotinylated (NHS kit) in direct ELISA, unlabelled in competition assays, Negative control peptide) [synthetic peptide 4-1-3-C11 (control peptide)], the binding result is “no binding (tested: 1 ug/ml)”.
